According to patent US20040120943:

Target: rabbit thrombomodulin (UniProt Q8HZ48)

**Q.** With variant thrombin W215A/E217A (WE) as the substance, how does the “activity toward protein C on addition of thrombomodulin” value read?
**A.** the WE variant thrombin recovers almost its full activity toward protein C upon binding to thrombomodulin
